Measurements taken from PMC7029138, “Modulation of Symbiotic Compatibility by Rhizobial Zinc Starvation Machinery”.

T1: Zur (His6-Zur) (Sinorhizobium fredii CCBAU45436, UniProt C3MDK7 1-131)
T1 sequence: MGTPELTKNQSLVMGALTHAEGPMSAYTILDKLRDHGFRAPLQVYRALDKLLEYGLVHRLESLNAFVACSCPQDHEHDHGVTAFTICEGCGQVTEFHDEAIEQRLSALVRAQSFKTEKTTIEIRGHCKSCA


What was measured:
Zur (His6-Zur) [1] = target: T1, Zur (His6-Zur); test: EMSA; 200 uM ZnSO4; 2.64 uM Zur; 10 mM Tris pH 7.5, 50 mM KCl, 1 mM DTT, 1 ug poly(dI-dC), 200 uM ZnSO4, with or without 50 uM TPEN, ~50 fmol probe in 15 ul, 25 C 20 min; 5% native PAGE in TB at 4 C; conditions: protein: recombinant; tags: N-terminal His6 (pET-28a(+), BamHI/HindIII); chain copies: 2; label: 5' biotin on both strands; blunt
Zur (His6-Zur) [2] = target: T1, Zur (His6-Zur); test: EMSA; 200 uM ZnSO4; 0.33-2.64 uM Zur, oligomeric shift above 1.32 uM; 10 mM Tris pH 7.5, 50 mM KCl, 1 mM DTT, 1 ug poly(dI-dC), 200 uM ZnSO4, with or without 50 uM TPEN, ~50 fmol probe in 15 ul, 25 C 20 min; 5% native PAGE in TB at 4 C; conditions: protein: recombinant; tags: N-terminal His6 (pET-28a(+), BamHI/HindIII); chain copies: 2; label: 5' biotin on both strands; blunt

Binder	binding result (Zur (His6-Zur) [1])	binding result (Zur (His6-Zur) [2])
a42610 Zur box probe (dsDNA) DNA 1: CAACATTCGCATGTTATGTTATAACATATCGCGTAATC DNA 2: GATTACGCGATATGTTATAACATAACATGCGAATGTTG	binds	–
e68370 Zur box probe (dsDNA) DNA 1: CAATCCCACGACGTAATGTTATAACATATCAGATAAGA DNA 2: TCTTATCTGATATGTTATAACATTACGTCGTGGGATTG	binds	–
d65890 Zur box probe (dsDNA) DNA 1: TGATCGACGTGTGTAATGATATAACATATCGCATAAGT DNA 2: ACTTATGCGATATGTTATATCATTACACACGTCGATCA	binds	–
c06450 Zur box probe (dsDNA) DNA 1: CAGCTCCTTATAATGTTATAACGTAACGGCACTTGATA DNA 2: TATCAAGTGCCGTTACGTTATAACATTATAAGGAGCTG	binds	–
znuA promoter Zur box probe (dsDNA) DNA 1: GCGACTGCGTCGTGTAATGTTATTACATCAATTGCGTTATGCTATAACGTGTGCAATAGC DNA 2: GCTATTGCACACGTTATAGCATAACGCAATTGATGTAATAACATTACACGACGCAGTCGC	–	binds
